Assays:
[1] = test system: SP cells; test: FACS of Hoechst 33342 treated quail SP cells; assay type: cell-based; details: negative control in FACS sorting
Method: SP cells were isolated from quail by FACS isolation relying on Hoechst 33342 and propidium iodide to distinguish different cell populations. Cells were incubated in Hoechst 33342 at 37° C. for 60-90 minutes. Cells were then collected by centrifugation, washed in PBS and resuspended in a propidium iodide solution. As a negative control, a fraction of the primary cells were incubated in parallel with verapamil, which blocks Hoechst 33342 efflux. Sorting was performed on a FACS Advantage Plus flow cytometer and fluorescence of Hoechst 33342 and propidium iodide was measured on a linear scale (Goodell et al. (1996) J. Exp. Med. 183:1797; Goodell et al. (1997) Nat. Med. 3:1337 and Gussoni et al. (1999) Nature 401:390). The cells were then pelleted by centrifugation.

[2] = test system: presumptive heart field of chick embryos; test: Implantation of Wnt-expressing cell pellets into the precardiac region of embryos in New culture; assay type: in vivo; details: cell pellets implanted at stage 3+ to 4; in situ hybridization
Description: FIG. 15. Overexpression of Wnt genes blocks cardiogenesis in precardiac mesoderm. (A) Whole-mount in situ hybridization for Nkx-2.5 in chick embryos in which pellets of chick embryo dermal fibroblasts infected with either RCAS-mWnt-3a or control RCAS-AP were implanted into the precardiac region of embryos in New culture at stage 3^+ to 4. […] (B) Red line in A indicates the level of this section. […] (C) Ectopic Wnt expression suppresses cardiogenesis in anterior lateral plate mesoderm explants. Stage 5 anterior lateral plate mesoderm from the precardiac region was infected with either control virus (RCAS-GFP, lane 1; RCAS-AP, lane 3), or RCAS-Wnt-3a (lane 2) or RCAS-Wnt-8c (lane 4). Cultures were carried out in the presence of 200 ng/mL BMP-4 overnight followed by 48 h in 20 ng/mL BMP-4. Transcript levels were evaluated by RT-PCR.
As inhibition of Wnt signaling can induce cardiogenesis in the PLP mesoderm, we hypothesized that expression of Wnt signals in the heart field would have the opposite effect. To address this issue, we examined whether ectopic expression of Wnt-3a in the presumptive heart field affects the expression of Nkx-2.5 in vivo. […] However, these in vivo experiments affected all three germ layers. […]

[3] = test system: APMEE explants; test: APMEE explant culture, cardiac gene expression by RT-PCR; assay type: cell-based, chick; details: stage 9 APMEE explants; RCAS-Wnt-3a infection (n=24) or coculture with Rat-1/Wnt-1-HA cells (n=12)
[4] = test system: stage 7 chick embryos; test: Cell pellet implantation into stage 7 chick embryos in New culture (heart looping, DiI tracing, in situ hybridization); assay type: in vivo; details: fibroblasts expressing Wnt-1 implanted into one side of heart-forming region, stage 7

Row | Molecule | Hoechst 33342 dye retention of SP cells [1] | Nkx-2.5 expression in the presumptive heart field [2] | APMEE explants in which cardiogenesis was blocked [3] | Nkx-2.5 expression in heart-forming region [4]
1 | COc1ccc(CCN(C)CCCC(C#N)(c2ccc(OC)c(OC)c2)C(C)C)cc1OC (stereo not shown) [verapamil] | blocks the channel(s) responsible for low dye retention | – | – | –
2 | Wnt-1: delivered by Rat-1 cells stably overexpressing Wnt-1 (protein, UniProt P04426 28-370, looked up) Proto-oncogene Wnt-1: ANSSGRWWGIVNIASSTNLLTDSKSLQLVLEPSLQLLSRKQRRLIRQNPGILHSVSGGLQSAVRECKWQFRNRRWNCPTAPGPHLFGKIVNRGCRETAFIFAITSAGVTHSVARSCSEGSIESCTCDYRRRGPGGPDWHWGGCSDNIDFGRLFGREFVDSGEKGRDLRFLMNLHNNEAGRTTVFSEMRQECKCHGMSGSCTVRTCWMRLPTLRAVGDVLRDRFDGASRVLYGNRGSNRASRAELLRLEPEDPAHKPPSPHDLVYFEKSPNFCTYSGRLGTAGTAGRACNSSSPALDGCELLCCGRGHRTRTQRVTERCNCTFHWCCHVSCRNCTHTRVLHECL | – | similarly extinguished endogenous Nkx-2.5 expression | 50% | blocked subsequent expression of Nkx-2.5

— patent publication US20040014209A1, “Compositions and methods for modulating cell differentiation” (priority 2002, published 2004)
